Assay results published in PMC6639331, “Reconstitution of recombinant human CCR4-NOT reveals molecular insights into regulated deadenylation”.

Legend:
[1] = target: T1, CCR4-NOT FULL (CCR4a E240A:CAF1 D40A) (Homo sapiens, UniProt A5YKK6;Q9NZN8;O75175;Q92600;Q9ULM6;Q9UIV1;Q9H9A5;Q9UKZ1 …, E240A;D40A); assay: EMSA; 1 uM protein, 100 nM RNA; EMSA: 20 mM Tris/HCl pH 7.5, 10 mM NaCl, 2 mM MgCl2, 0.1% BSA, 0.1% Orange G, 3% Ficoll 400; 100 nM RNA; 10% native PAGE in TBE pH 8.3; temperature not stated; settings: protein: recombinant; tags: NOT1 N-His10 and C-StrepII x2; other tags removed; copies: 1;1;1;1;1;1;1;1; label: 5' 6-FAM
[2] = target: T1, CCR4-NOT FULL (CCR4a E240A:CAF1 D40A); assay: EMSA; 1 uM protein, 100 nM RNA; preferred; EMSA: 20 mM Tris/HCl pH 7.5, 10 mM NaCl, 2 mM MgCl2, 0.1% BSA, 0.1% Orange G, 3% Ficoll 400; 100 nM RNA; 10% native PAGE in TBE pH 8.3; temperature not stated; settings: protein: recombinant; tags: NOT1 N-His10 and C-StrepII x2; other tags removed; copies: 1;1;1;1;1;1;1;1; label: labeled

CACAUCCAACUUCUCUAAAUAAAAAAAAAAAAAAAAAAAA (ssRNA) [13+7-mer-A20]
binding result [1]: binds

UCUAAAUAAAAAAAAAAAAAAAAAAAA (ssRNA) [7-mer-A20]
binding result [1]: binds

UUUUUUUUUUUUUUUUUUUUUUUUUUUUUU (ssRNA) [poly(U)30]
binding result [2]: binds
